± gives the standard error. For part of these data: This sample holds only a part of the variants without activity.
B1: glmS ribozyme (parent)
chain: AUAAAAGCGCCAGAACUACAGAAAUGUAGUUGACGAGGAGGAGGUUUAUCGAAUUUUCGGCGGAUGCCUCCAAA

Columns and labels:
Settings in all cases: with glucosamine-6-phosphate
[1] = variants of: B1; assay: kcat; higher = faster cleavage; RNA array
Summary of the method: (§1)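 kobs was derived by fitting per-tile medians to one- or two-exponential decays after normalising signals to baseline and to non-cleaving reference variants. Those signals came from barcoded ribozyme variants transcribed in situ by E. coli RNA polymerase on sequenced MiSeq chips, followed through a hybridised Cy3 probe at 37 °C and imaged over ~14 h. Glucosamine-6-phosphate (40 μM to 10 mM) in HEPES/KCl/Mg(OAc)2 buffer was flowed in. Weighted Michaelis–Menten fits across concentrations then gave kcat and KM.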

[2] = variants of: B1; assay: KM; higher = weaker cofactor use; RNA array
Summary of the method: as §1

[3] = variants of: B1; assay: self-cleavage kobs at 160 uM GlcN6P; higher = faster cleavage; RNA array
Summary of the method: as §1

[4] = variants of: B1; assay: self-cleavage kobs at 640 uM GlcN6P; higher = faster cleavage; RNA array
Summary of the method: as §1

[5] = variants of: B1; assay: self-cleavage kobs at 2500 uM GlcN6P; higher = faster cleavage; RNA array
Summary of the method: as §1

[6] = variants of: B1; assay: self-cleavage kobs at 10000 uM GlcN6P; higher = faster cleavage; RNA array
Summary of the method: as §1

[7] = variants of: B1; assay: self-cleavage kobs at 40 uM GlcN6P; higher = faster cleavage; RNA array
Summary of the method: as §1

Row | Variant | kcat [1] [s⁻¹] | KM [2] [µM] | self-cleavage kobs at 160 uM GlcN6P [3] [s⁻¹] | self-cleavage kobs at 640 uM GlcN6P [4] [s⁻¹] | self-cleavage kobs at 2500 uM GlcN6P [5] [s⁻¹] | self-cleavage kobs at 10000 uM GlcN6P [6] [s⁻¹] | self-cleavage kobs at 40 uM GlcN6P [7] [s⁻¹]
1 | A14U U65A | 0.0015 ± 0.00017 | 4460 ± 760 | 4.54e-05 ± 1.3e-05 | 0.000203 ± 2.7e-05 | 0.000449 ± 0.00012 | 0.00105 ± 0.00012 | –
2 | A14G G43U U46G | 3.09e-05 ± 3.5e-06 | 1610 ± 590 | – | – | – | – | < 1e-05
3 | A14G A15U G40U | 0.00322 ± 0.00023 | 690 ± 78 | – | 0.00146 ± 0.00029 | 0.00279 ± 0.0008 | 0.00298 ± 0.00083 | 0.00018 ± 3.4e-05
4 | A14C G44U | 4.6e-05 ± 8.4e-06 | – | – | – | 3.7e-05 ± 1.4e-05 | 3.91e-05 ± 9.8e-06 | < 1e-05
5 | A14G G41U | 0.00179 ± 0.00049 | 206 ± 99 | 0.000642 ± 0.00012 | 0.00124 ± 0.00021 | 0.00232 ± 0.00045 | – | 0.00033 ± 4.5e-05
6 | A15G A42U | 0.000248 ± 4.1e-05 | 1410 ± 570 | 2.77e-05 ± 1.4e-05 | 6.62e-05 ± 1.7e-05 | 0.000216 ± 3.8e-05 | 0.000203 ± 3e-05 | –
7 | A15G U46A | 0.00453 ± 0.00029 | 1890 ± 170 | 0.0003 ± 9.6e-05 | 0.00114 ± 0.00035 | 0.00258 ± 0.00041 | 0.00382 ± 0.00063 | 9.83e-05 ± 1.5e-05
8 | A15G U46G | 0.00908 ± 0.00054 | 2020 ± 170 | 0.000667 ± 0.0001 | 0.00198 ± 0.00026 | 0.00538 ± 0.00091 | 0.00757 ± 0.00068 | 0.000184 ± 2e-05
9 | A15G G32C C67G | 1.35e-05 ± 1.1e-06 | – | – | – | – | – | –
10 | A14C G66C | 9.53e-05 ± 3.1e-06 | 2140 ± 260 | – | – | 5.12e-05 ± 1.5e-05 | 7.85e-05 ± 9.8e-06 | –
11 | A15C U31C | 0.00282 ± 0.00061 | 3830 ± 1200 | 0.000136 ± 3e-05 | 0.000359 ± 4.3e-05 | 0.00104 ± 0.00023 | 0.00211 ± 0.00024 | 4.49e-05 ± 9.1e-06
12 | A15G U47C | 0.0057 ± 0.00076 | 1660 ± 350 | 0.000348 ± 0.00016 | 0.00164 ± 0.0005 | 0.00388 ± 0.00099 | 0.00476 ± 0.00083 | 0.000151 ± 3.2e-05
13 | A15G A52C | 2.96e-05 ± 2e-06 | 1090 ± 400 | – | – | – | 2.66e-05 ± 9.9e-06 | < 1e-05
14 | A14G G59A | 0.000294 ± 1.8e-05 | 2010 ± 250 | – | 6.96e-05 ± 1.2e-05 | 0.000183 ± 3.7e-05 | 0.000239 ± 3e-05 | –
15 | A14G G43U | 0.000159 ± 2.6e-05 | 2770 ± 980 | – | 3.9e-05 ± 8.4e-06 | 6.85e-05 ± 8.5e-06 | 0.000131 ± 1.5e-05 | –
16 | A15C A53C | 0.00123 ± 0.00037 | 2900 ± 1400 | 5.14e-05 ± 1.6e-05 | 0.000308 ± 6e-05 | 0.000472 ± 0.00011 | 0.00102 ± 0.00019 | 2.74e-05 ± 1.3e-05

Row | Variant | kcat [1] [s⁻¹] | KM [2] [µM] | self-cleavage kobs at 160 uM GlcN6P [3] [s⁻¹] | self-cleavage kobs at 640 uM GlcN6P [4] [s⁻¹] | self-cleavage kobs at 2500 uM GlcN6P [5] [s⁻¹] | self-cleavage kobs at 10000 uM GlcN6P [6] [s⁻¹] | self-cleavage kobs at 40 uM GlcN6P [7] [s⁻¹]
17 | A15G G32C | 0.000278 ± 6.2e-05 | 8170 ± 3300 | – | – | 6.16e-05 ± 1.6e-05 | 0.000154 ± 2e-05 | –
18 | A15U A36G U69C C70A | 1.84e-05 ± 4.3e-06 | – | – | – | – | – | –
19 | A14U A36G G66U | < 1e-05 | – | – | < 1e-05 | – | < 1e-05 | –
20 | A14C C68A | 2.76e-05 ± 9.8e-06 | – | – | – | 3.95e-05 ± 1.8e-05 | – | –
21 | A14C C68U | 0.000506 ± 4e-05 | 1460 ± 250 | 6.97e-05 ± 2.3e-05 | 0.00015 ± 2.1e-05 | 0.000305 ± 6.4e-05 | 0.000447 ± 5e-05 | –
22 | A15C G32A U55A | 0.00195 ± 0.00087 | – | 7.61e-05 ± 2.3e-05 | 0.000233 ± 5.6e-05 | 0.000416 ± 0.00012 | 0.00137 ± 0.00022 | –
23 | A14C U65A | 0.000588 ± 2.2e-05 | 3100 ± 210 | – | 0.000103 ± 1.5e-05 | 0.000248 ± 5e-05 | 0.000453 ± 5.4e-05 | –
24 | A15G G43U | 4.47e-05 ± 6.5e-06 | – | < 1e-05 | – | 4.65e-05 ± 9.7e-06 | 4e-05 ± 5.6e-06 | –
25 | A15G G43A | 8.91e-05 ± 1.1e-05 | 2300 ± 940 | – | – | 4.89e-05 ± 1.5e-05 | 7.17e-05 ± 1.4e-05 | < 1e-05
26 | A14G G60A | 8.13e-05 ± 1.1e-05 | 3020 ± 1300 | – | – | 4.34e-05 ± 1.9e-05 | 6.17e-05 ± 1.2e-05 | –
27 | A14C G32U | 0.0014 ± 6.9e-05 | 3610 ± 300 | 6.08e-05 ± 2.1e-05 | 0.000206 ± 3e-05 | 0.000576 ± 7.9e-05 | 0.00103 ± 0.00012 | –
28 | A14C G40U | 0.000718 ± 9.8e-05 | 2800 ± 790 | – | 0.000144 ± 2.2e-05 | 0.000352 ± 6.1e-05 | 0.000555 ± 5.2e-05 | –
29 | A15G G37U | 1.02e-05 ± 7.1e-07 | 623 ± 300 | – | – | – | – | < 1e-05
30 | A15C U56C | 0.00118 ± 0.00019 | 2470 ± 690 | 8.66e-05 ± 1.7e-05 | 0.000202 ± 3.2e-05 | 0.000708 ± 9.2e-05 | 0.000914 ± 9.9e-05 | –
31 | A15C U56A | 0.00477 ± 0.0013 | 1930 ± 760 | – | 0.00107 ± 0.00016 | 0.00218 ± 0.0005 | 0.00482 ± 0.0008 | 0.000113 ± 1.7e-05

From the supplement of paper PMC7125110
